We go through 1 protein from US20250025552A1 (published 2025).

This series deals with the molecule itself. In words: gel filtration (Superdex 200) of His-caspase 11 after incubation with oxPAPC; self-association. On the procedure: To measure the ability of oxPAPC to oligomerize caspase-11, monomer or oligomer fractions of His-caspase 11 were incubated with oxPAPC for 2 hours on ice, and then analyzed with Superdex 200 (10/300).
On the technique in general: SEC sorts molecules by how far they enter the pores of the column.

B1: His-caspase 11 (full length mouse caspase 11 with a TEV cleavable N-terminal 6xHis tag) (enzyme, UniProt P70343 1-373, looked up)
chain: MAENKHPDKPLKVLEQLGKEVLTEYLEKLVQSNVLKLKEEDKQKFNNAERSDKRWVFVDAMKKKHSKVGEMLLQTFFSVDPGSHHGEANLEMEEPEESLNTLKLCSPEEFTRLCREKTQEIYPIKEANGRTRKALIICNTEFKHLSLRYGANFDIIGMKGLLEDLGYDVVVKEELTAEGMESEMKDFAALSEHQTSDSTFLVLMSHGTLHGICGTMHSEKTPDVLQYDTIYQIFNNCHCPGLRDKPKVIIVQACRGGNSGEMWIRESSKPQLCRGVDLPRNMEADAVKLSHVEKDFIAFYSTTPHHLSYRDKTGGSYFITRLISCFRKHACSCHLFDIFLKVQQSFEKASIHSQMPTIDRATLTRYFYLFPGN
notes: Monomer or oligomer fractions from size exclusion chromatography were incubated with oxPAPC and run on Superdex 200; not shown: TEV cleavable N-terminal 6xHis tag from the pFastBac HT A vector
In the case of B1, the binding result is listed as “binds”.
